The values that follow come from patent US20240294650A1 (Alector, published 2024).

Experiment [1] has as its target T1, endogenous murine MerTK on bone marrow-derived macrophages (mouse, UniProt Q60805 19-994).
T1 construct: whole, on cells; MFI on MerTK KO BMDM subtracted; also called BMDM WT-KO
T1 sequence (looked up): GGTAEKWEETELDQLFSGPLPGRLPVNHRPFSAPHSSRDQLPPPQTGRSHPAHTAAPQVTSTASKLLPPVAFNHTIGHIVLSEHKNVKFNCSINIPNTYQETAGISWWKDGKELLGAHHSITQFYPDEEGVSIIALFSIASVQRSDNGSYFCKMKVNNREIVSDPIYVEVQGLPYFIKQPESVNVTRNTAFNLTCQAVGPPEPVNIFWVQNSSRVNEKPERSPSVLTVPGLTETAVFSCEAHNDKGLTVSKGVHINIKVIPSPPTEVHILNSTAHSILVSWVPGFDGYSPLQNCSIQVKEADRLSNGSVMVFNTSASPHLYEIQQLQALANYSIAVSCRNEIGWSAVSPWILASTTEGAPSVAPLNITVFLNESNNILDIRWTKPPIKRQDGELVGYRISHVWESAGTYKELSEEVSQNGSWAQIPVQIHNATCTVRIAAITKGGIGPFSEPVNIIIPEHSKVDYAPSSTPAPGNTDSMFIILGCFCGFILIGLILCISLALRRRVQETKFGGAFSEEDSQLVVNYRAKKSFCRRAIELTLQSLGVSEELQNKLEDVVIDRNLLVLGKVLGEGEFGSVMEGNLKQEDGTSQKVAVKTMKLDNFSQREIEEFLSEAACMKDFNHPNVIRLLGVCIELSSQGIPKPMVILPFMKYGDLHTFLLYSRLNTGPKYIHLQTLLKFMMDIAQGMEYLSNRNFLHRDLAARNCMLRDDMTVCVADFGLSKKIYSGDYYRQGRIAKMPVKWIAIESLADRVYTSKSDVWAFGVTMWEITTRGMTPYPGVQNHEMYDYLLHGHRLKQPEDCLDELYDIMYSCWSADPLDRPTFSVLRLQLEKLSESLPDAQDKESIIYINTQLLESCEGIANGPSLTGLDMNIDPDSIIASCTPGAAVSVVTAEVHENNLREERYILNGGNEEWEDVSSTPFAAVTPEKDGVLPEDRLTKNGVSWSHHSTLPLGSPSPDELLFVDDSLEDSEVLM
As to the kind of experiment: FACS, mouse BMDM, WT minus MerTK KO. An outline of the steps: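 MFI from flow cytometry, reported as WT minus KO, after antibody (10 μg/ml, 60 min on ice) and PE goat anti-human IgG (30 min on ice, Fc block present). Macrophages came from WT and MerTK-knockout mouse marrow cultured seven days in 50 ng/ml M-CSF.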
(A flow cytometer gives signals particle by particle.)

A further experiment has as its target T2, human MerTK (human, UniProt Q12866 21-999).
T2 construct: endogenous receptor on cells; also called human MerTK endogenously expressed on SK-MEL-5 cells; MerTK on human macrophages
T2 sequence: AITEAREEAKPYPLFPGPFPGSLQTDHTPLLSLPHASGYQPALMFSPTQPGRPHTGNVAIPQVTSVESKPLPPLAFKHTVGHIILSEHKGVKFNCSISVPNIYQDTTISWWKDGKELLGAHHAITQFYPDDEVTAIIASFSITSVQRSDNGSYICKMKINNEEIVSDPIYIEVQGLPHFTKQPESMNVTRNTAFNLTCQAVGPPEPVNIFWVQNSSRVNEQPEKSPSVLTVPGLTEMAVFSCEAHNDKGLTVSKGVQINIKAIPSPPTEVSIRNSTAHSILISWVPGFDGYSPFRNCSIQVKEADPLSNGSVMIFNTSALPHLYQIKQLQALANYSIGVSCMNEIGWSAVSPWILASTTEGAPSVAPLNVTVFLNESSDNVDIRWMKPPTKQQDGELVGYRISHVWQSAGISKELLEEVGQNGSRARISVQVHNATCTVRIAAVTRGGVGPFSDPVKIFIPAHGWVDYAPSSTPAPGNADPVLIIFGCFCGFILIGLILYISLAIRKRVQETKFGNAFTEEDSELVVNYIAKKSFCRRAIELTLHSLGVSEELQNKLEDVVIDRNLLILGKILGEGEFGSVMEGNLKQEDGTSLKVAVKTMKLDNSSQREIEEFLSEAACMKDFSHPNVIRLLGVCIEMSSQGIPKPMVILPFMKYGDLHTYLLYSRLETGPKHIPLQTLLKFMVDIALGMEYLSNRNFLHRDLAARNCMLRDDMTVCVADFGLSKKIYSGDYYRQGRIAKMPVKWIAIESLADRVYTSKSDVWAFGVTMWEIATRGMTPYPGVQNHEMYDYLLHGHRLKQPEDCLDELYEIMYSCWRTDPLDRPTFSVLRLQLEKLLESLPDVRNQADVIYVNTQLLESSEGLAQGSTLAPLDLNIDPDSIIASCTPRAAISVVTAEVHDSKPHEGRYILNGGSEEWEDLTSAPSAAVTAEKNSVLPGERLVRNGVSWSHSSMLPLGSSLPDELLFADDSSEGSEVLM
As to the kind of experiment: FACS, SK-MEL-5 cells, 10 ug/ml. The method, then: To determine whether recombinant anti-human MerTK antibodies of the present disclosure bind to human MerTK endogenously expressed on SK-MEL-5 cells and CHO cells overexpressing mouse MerTK (CHO-muMerTK OE cells), as compared to A375 and parental CHO cells as negative controls, the following experiments were performed. SK-MEL-5 cells, A375 cells, CHO-muMerTK OE cells, and CHO parental cells were plated at 100,000 cells/well. Anti-MerTK antibodies were added to the cells at 10 μg/ml. After 60 minutes on ice, cells were washed and then stained with PE-conjugated goat anti-human IgG antibody (Southern Biotech Cat #2040-09, Birmingham, AL) in the presence of Fc block solution on ice for 30 minutes, and then washed twice with cold FACS buffer (2% FBS in PBS). Mouse anti-human MerTK-PE conjugated (Biolegend, Clone 590H11G1E3) or anti-mouse MerTK-PE conjugated (ThermoFisher, Clone DS5MMER) antibodies were used as positive controls. Stained cells were acquired on a BD FACS Canto II cytometer and the mean fluorescence intensity (MFI) was calculated with FlowJo.

B1: MTK-231 (antibody, human IgG1, V domains shown)
VH: DVQLQESGPGLVKPSQSLSLTCSVTGYSITSGYYWNWIRQFPGNKLEWMGYISYDGTYNYHPSLKNRISITRDTSKNQFFLTLNSVTTEDTATFYCTRGGGYWGQGTSVTVSS
VL: DVVMTQTPLSLPVSLGDQASISCRSSQSLVHSDGNTYLHWYLQKPGQSPKLLIYKVSNRFSGVPDRFSGSGSGTDFTLKISRLEAEDLGIYFCSQTTHIPLTFGSGTKLEIK
For the molecule B1, the values for the MFI (in experiment [1]; with human MerTK) were 639 MFI and 39000 MFI, respectively.

B2: MTK-215 (antibody, human IgG1, V domains shown)
VH: EVQLVESGGGLVKPGGSLKLSCAASGFIFSDYGMHWVRQAPEKGLEWVAYISSGSSTIYYGDTVKGRFTISRDNAKNTLFLQMTSLRSEDTAMYYCAKGGRYGAMDYWGHGTSVTVSS
VL: DIVLTQSPATLSVTPGDSVSLSCRASQSISNNLHWYQQKSHESPRLLIKNPSQSISGIPSRFGARGSGTDFTLIINSVETEDLGVYFCQQSNSWPFTFGSGTKLEIK
With B2, the MFI was determined as 466 MFI in experiment [1] and 19000 MFI with human MerTK.

B3: MTK-207 (antibody, human IgG1, V domains shown)
VH: QVQLKESGPGLVAPSQSLSITCTVSGISLTSYGVSWVRQPPGKGLEWLGIIWGDGSTNYHSALISRLSISKDNSKSQVFLKLNSLQTDDTATYYCAKGRYGNYEDWYFDVWGTGTTVTVSS
VL: DIQMTQSPASLSASVGETVTITCRASGNIHNYLAWYQQKQGKSPQLLVYNAKTLAAGVPSRFSGSGSGTQYSLKINSLQPEDFGSYYCQHFWSIPLTFGAGTKLELK
With B3, the MFI in experiment [1] worked out at 989 MFI; with human MerTK, 1190 MFI.

B4: MTK-225 (antibody, human IgG1, V domains shown)
VH: EVQLQQSGPELVKPGASVKIFCKASGYTFTAYNMDWVKQSHGKSLEWIGDINPNNGGTIYNQKFKGKATLTVDKSSSTAYMELRSLTSEDTAVYYCARRRRYGNTYYWYFDVWGTGTTVTVSS
VL: DIQMTQSPASLSVSVGETVTITCRASENIYSSLAWYQQKQGKSPQLLVYAATNLADGVPSRFSGSGSGTQFYLKINGLQSEDFGSYYCQHFWGTSYTFGGGTKLEIK
Turning to B4, the MFI in experiment [1] was found to be 619 MFI; with human MerTK, 40200 MFI.
